The values below are quoted from earlier work in patent US12251426B2 (priority 2020, dated 2025).

B1: Bovine lactoferrin: water-soluble protein obtainable through bovine milk (protein, UniProt P24627 20-708, looked up)
Lactotransferrin: APRKNVRWCTISQPEWFKCRRWQWRMKKLGAPSITCVRRAFALECIRAIAEKKADAVTLDGGMVFEAGRDPYKLRPVAAEIYGTKESPQTHYYAVAVVKKGSNFQLDQLQGRKSCHTGLGRSAGWIIPMGILRPYLSWTESLEPLQGAVAKFFSASCVPCIDRQAYPNLCQLCKGEGENQCACSSREPYFGYSGAFKCLQDGAGDVAFVKETTVFENLPEKADRDQYELLCLNNSRAPVDAFKECHLAQVPSHAVVARSVDGKEDLIWKLLSKAQEKFGKNKSRSFQLFGSPPGQRDLLFKDSALGFLRIPSKVDSALYLGSRYLTTLKNLRETAEEVKARYTRVVWCAVGPEEQKKCQQWSQQSGQNVTCATASTTDDCIVLVLKGEADALNLDGGYIYTAGKCGLVPVLAENRKSSKHSSLDCVLRPTEGYLAVAVVKKANEGLTWNSLKDKKSCHTAVDRTAGWNIPMGLIVNQTGSCAFDEFFSQSCAPGADPKSRLCALCAGDDQGLDKCVPNSKEKYYGYTGAFRCLAEDVGDVAFVKNDTVWENTNGESTADWAKNLNREDFRLLCLDGTRKPVTEAQSCHLAVAPNHAVVSRSDRAAHVKQVLLHQQALFGKNGKNCPDKFCLFKSETKNLLFNDNTECLAKLGGRPTYEEYLGTEYVTAIANLKKCSTSPLLEACAFLTR
Consider B1, for which the water solubility result is “water-soluble”.
